Reference: patent US20240083945A1 (Bicycle, published 2024)

Biological target: T1, COVID-19 nucleocapsid protein (N-protein) (severe acute respiratory syndrome …, UniProt P0DTC9 1-419)
T1 construct: also called nucleocapsid protein (N-protein) of severe acute respiratory syndrome coronavirus 2 (SARS-CoV-2)
Test: bio-layer interferometry (BLI)

Binder	Kd [µM]
ACVHDVCALTGIHIPCA (Ci, Cii and Ciii cysteines covalently bound to TATA scaffold) [BCY19453]	4.24
ACQVDVCALTGIQIPCA (Ci, Cii and Ciii cysteines covalently bound to TATA scaffold) [BCY19455]	14.9
ACSRANNYCDWWKCA (Ci, Cii and Ciii cysteines covalently bound to TBCU scaffold) [BCY16578]	22.3
ACLEAGQRCNWTRVCA (Ci, Cii and Ciii cysteines covalently bound to TATA scaffold) [BCY17649]	0.596
ACMHDVCVLTGVNIPCA (Ci, Cii and Ciii cysteines covalently bound to TATA scaffold) [BCY19563]	1.51
ACLPLGARCNWTRVCA (Ci, Cii and Ciii cysteines covalently bound to TATA scaffold) [BCY17646]	0.198
NQLPCLTDFCNNRYVVNQCQEQS (Ci, Cii and Ciii cysteines covalently bound to TBMT scaffold) [BCY18994]	6.89
ACLAPGQRCQWGRTCA (Ci, Cii and Ciii cysteines covalently bound to TATA scaffold) [BCY17645]	0.227
ACTNRNFCQNRYSVTCA (Ci, Cii and Ciii cysteines covalently bound to TBCU scaffold) [BCY16568]	8.16
ACTVDVCLLTGLHIPCA (Ci, Cii and Ciii cysteines covalently bound to TATA scaffold) [BCY19454]	7.11
ACTVDVCELTGLHIPCA (Ci, Cii and Ciii cysteines covalently bound to TATA scaffold) [BCY19565]	0.84
ACLPLGARCQWQRECA (Ci, Cii and Ciii cysteines covalently bound to TATA scaffold) [BCY17648]	1.86
KSQRCMTDFCNNRYVVNRCA (Ci, Cii and Ciii cysteines covalently bound to TBMT scaffold) [BCY18993]	0.0238
ACSVDVCAITGVHIPCA (Ci, Cii and Ciii cysteines covalently bound to TATA scaffold) [BCY19566]	3.26
ACTVDVCAITGVQIPCA (Ci, Cii and Ciii cysteines covalently bound to TATA scaffold) [BCY19568]	1.87
ACTHDVCVLTGISIPCA (Ci, Cii and Ciii cysteines covalently bound to TATA scaffold) [BCY19564]	2
ACLEAGQRCQWGRTCA (Ci, Cii and Ciii cysteines covalently bound to TATA scaffold) [BCY17644]	0.675
ACLEAGQRCQWSRTCA (Ci, Cii and Ciii cysteines covalently bound to TATA scaffold) [BCY17651]	0.686
ACLPLGARCQWGRTCA (Ci, Cii and Ciii cysteines covalently bound to TATA scaffold) [BCY16576]	0.593
ACLPLGARCQWSRTCA (Ci, Cii and Ciii cysteines covalently bound to TATA scaffold) [BCY17647]	0.548
NQLPCLTDFCNNRYVVNRCA (Ci, Cii and Ciii cysteines covalently bound to TBMT scaffold) [BCY18992]	0.0197
ACDKWQLGCRITYKCA (Ci, Cii and Ciii cysteines covalently bound to TATA scaffold) [BCY16575]	1.02
ACHVDVCLITGVNIPCA (Ci, Cii and Ciii cysteines covalently bound to TATA scaffold) [BCY19567]	2.25
ACSEEYMFCNNRYVVCA (Ci, Cii and Ciii cysteines covalently bound to TATA scaffold) [BCY16577]	0.934
ACSTDVCKLTGIAIPCA (N-terminal acetyl (Ac); Ci, Cii and Ciii cysteines covalently bound to TATA scaffold) [BCY20265]	0.0025
ACLVDVCEITGVQIRCA (Ci, Cii and Ciii cysteines covalently bound to TATA scaffold) [BCY18171]	5.61
ACLAPGQRCNWTRVCA (Ci, Cii and Ciii cysteines covalently bound to TATA scaffold) [BCY17652]	0.142
ACLEAGQRCQWQRECA (Ci, Cii and Ciii cysteines covalently bound to TATA scaffold) [BCY17650]	1.99
ACSTDVCKLTGIAIPCA (Ci, Cii and Ciii cysteines covalently bound to TATA scaffold) [BCY18169]	1.6
